According to publication PMC7181051, “Probing the Protein-Protein Interaction between the ATRXADD Domain and the Histone H3 Tail” (Molecules, 2020):
pIC50, pKd: −log10 of the molar value. Values joined by “and” are separate entries in the source; they are usually repeats but may differ in a detail not shown here. Equal values may be shown once.

How the values were obtained:
[1] = target: Histone H3 H3 tail peptide (Homo sapiens) (UniProt P68431); conditions: cited from earlier work
[2] = target: Histone H3 (Homo sapiens) (UniProt P68431); conditions: cited from earlier work
[3] = target: Histone H3 1-15 (Homo sapiens) (UniProt P68431); assay: ITC; conditions: cited from earlier work
[4] = target: ATRXADD-His (His-tagged ATRX ADD domain) (UniProt P46100); assay: AlphaScreen or HTRF; competition, Ni-NTA kit: ATRXADD-His (625 nM), H3_(1-15)K9me3-biotin (94 nM), 20 μg/mL of each bead, unlabeled peptide added; HEPES buffer (50 mM HEPES, 100 mM NaCl, 0.1% Triton X-100, 0.1% BSA); 1 hour, room temperature, dark
[5] = target: ATRXADD-His (His-tagged ATRX ADD domain) (UniProt P46100); assay: AlphaScreen or HTRF; direct signal, Nickel Chelate (Ni-NTA) kit: H3_(1-15)K9me3-biotin on streptavidin beads, ATRXADD-His on Ni-NTA beads; 20 μg/mL of each bead

Substance: ATRX ADD (from UniProt P46100)
- pKd [1]: < 4.10
- pKd [2]: < 4.10
- pKd [3]: 6.41 and 5.57

Substance: H3_(1-15)K9me0 peptide (from UniProt P68431 2-16)
- pIC50 [4]: < 5.00

Substance: H3_(1-15)K9me1 peptide (from UniProt P68431 2-16)
- pIC50 [4]: < 5.00

Substance: H3_(1-15)K9me3-biotin peptide (biotin label at the C-terminus) (from UniProt P68431 2-16)
- AlphaScreen signal [5]: 1.25e+06
